Article PMC10657414, “LncRNA INHEG promotes glioma stem cell maintenance and tumorigenicity through regulating rRNA 2’-O-methylation” (Nature Communications, 2023)

Molecular target: T1, GST-tagged full-length TAF15 (human, UniProt Q92804 1-592)
T1 construct: TAF15, human, full length, cloned into pGEX-6p-1; Immobilised on glutathione-Sepharose 4B in the pull-down; also called GST-TAF15; source: E. coli BL21, purified (Glutathione Sepharose)
Assay: pull-down; GST pull-down: GST-TAF15 or GST alone immobilised on glutathione-Sepharose 4B, His-NOP58 added, 1 h at 4 °C in 50 mM Tris-HCl pH 7.5, 150 mM NaCl, 10 mM MgCl2, 10% glycerol, 1% Triton X-100, 1 mM DTT, 1% BSA; western blot; also with in vitro transcribed INHEG
Conditions: both partners purified

T1 sequence (Q92804 whole entry): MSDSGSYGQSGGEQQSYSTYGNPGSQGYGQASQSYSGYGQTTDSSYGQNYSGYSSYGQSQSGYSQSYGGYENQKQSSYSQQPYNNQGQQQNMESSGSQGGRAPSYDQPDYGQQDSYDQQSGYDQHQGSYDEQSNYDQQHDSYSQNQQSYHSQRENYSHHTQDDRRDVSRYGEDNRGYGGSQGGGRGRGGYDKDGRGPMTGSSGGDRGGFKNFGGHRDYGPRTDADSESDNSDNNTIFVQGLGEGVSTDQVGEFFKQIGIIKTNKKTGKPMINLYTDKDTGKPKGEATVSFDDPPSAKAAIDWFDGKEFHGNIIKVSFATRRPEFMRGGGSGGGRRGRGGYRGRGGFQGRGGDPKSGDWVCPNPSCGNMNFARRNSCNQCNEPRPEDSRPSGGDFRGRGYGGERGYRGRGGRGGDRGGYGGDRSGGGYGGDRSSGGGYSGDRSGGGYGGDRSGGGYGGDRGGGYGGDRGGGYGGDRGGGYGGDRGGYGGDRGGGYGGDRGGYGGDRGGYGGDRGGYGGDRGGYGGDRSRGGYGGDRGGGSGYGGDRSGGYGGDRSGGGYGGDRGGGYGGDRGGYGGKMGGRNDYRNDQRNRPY

binding result: binds
B1: His-tagged full-length NOP58 (natural protein, human, UniProt Q9Y2X3 1-529, looked up)
chain: MLVLFETSVGYAIFKVLNEKKLQEVDSLWKEFETPEKANKIVKLKHFEKFQDTAEALAAFTALMEGKINKQLKKVLKKIVKEAHEPLAVADAKLGGVIKEKLNLSCIHSPVVNELMRGIRSQMDGLIPGVEPREMAAMCLGLAHSLSRYRLKFSADKVDTMIVQAISLLDDLDKELNNYIMRCREWYGWHFPELGKIISDNLTYCKCLQKVGDRKNYASAKLSELLPEEVEAEVKAAAEISMGTEVSEEDICNILHLCTQVIEISEYRTQLYEYLQNRMMAIAPNVTVMVGELVGARLIAHAGSLLNLAKHAASTVQILGAEKALFRALKSRRDTPKYGLIYHASLVGQTSPKHKGKISRMLAAKTVLAIRYDAFGEDSSSAMGVENRAKLEARLRTLEDRGIRKISGTGKALAKTEKYEHKSEVKTYDPSGDSTLPTCSKKRKIEQVDKEDEITEKKAKKAKIKVKVEEEEEEKVAEEEETSVKKKKKRGKKKHIKEEPLSEEEPCTSTAIASPEKKKKKKKKRENED
notes: NOP58, human, full length, cloned into pET-28a; also called His-NOP58; source: E. coli BL21, purified (Ni-NTA)
